# Test results published in patent US20020120098A1, “Enhanced stimulation of erythropoiesis” (priority 1996, published 2002).
# Like-named read-outs stand apart in the source and are kept apart here.
# How the values were obtained:
# [1] = Half-life and blood level of Epo versus HEMOLINK after single i.v. administration; type: in vivo; settings: single i.v. 225 U/kg
# Text: Another strategy for the co-administration of Epo and hemoglobin is to reduce the number of Epo administrations required during therapy. Several Epo therapies follow the regimen of three weekly injections, either intravenously or subcutaneously. Multiple low dose or single high dose injections of Epo are required due to its relatively short half-life in vivo. […] HEMOLINK™ has a longer half-life. […] Longer half-life of the cross-linked hemoglobin can therefore compensate for Epo which may decline at a much faster rate. Thus, hemoglobin co-administered with Epo could prolong the effectiveness of Epo and therefore this combination therapy can be used to reduce the required frequency of Epo administrations.
# [2] = cited from earlier work
# [3] = test system: BFU-E; assay: Colony formation assay (CFA), cord blood LDMNC: BFU-E colonies; type: cell-based, human; settings: 0.1-100 μM ganciclovir, absence of HEMOLINK
# Method: (§1) This technique, referred to as the colony formation assay (CFA), is the most widely used biological assay to identify and enumerate erythroid progenitors present in hematopoietic tissue such as blood and bone marrow. Cell populations containing erythroid progenitors are plated in semi-solid suspensions of methyl cellulose, agar, low melting agarose or related substances in nutrient culture medium containing 1-3 U/ml Epo and 10 ng/ml IL-3 to specifically stimulate erythroid progenitors. Plates are incubated at 37° C. for 14 days during which time the erythroid progenitors form characteristic hemoglobinized (red) colonies. Two distinct but related erythroid progenitors can be distinguished based on colony size and morphology: BFU-E, the most primitive recognizable erythroid progenitor forms large multilobular colonies whereas the more mature CFU-E forms smaller spherical colonies.
# (§2) Adult hemoglobin was purified according to U.S Pat. Nos. 5,439,591 and 5,545,328 to obtain HAo and HEMOLINK™ was prepared from HAo according to U.S. Pat. No. 5,532,352. Human umbilical cord blood intended for discard was collected from the umbilical vein of placentas immediately postpartum into 10 ml vacutainer tubes containing 143 USP units/ml sodium heparin. Low density mononuclear cells were separated from red blood cells by centrifugation over a 1.077 g/ml density gradient Cells removed from the plasma/density gradient interface were incubated overnight in a tissue culture flask with 10 ml cell culture medium containing 10% fetal bovine serum, and non-adherent LDMNC were further purified with an additional density gradient step. The LDMNC were then plated into colony formation assays (CFA) on the second day of isolation. In the CFA, LDMNC were plated at a density of 1×10^5 cells/ml in Iscoves modified Dulbeccos cell culture medium containing 0.8% methyl-cellulose, 30% fetal bovine serum, 1% bovine serum albumin, 0.1 mM 2-mercaptoethanol and 2 mM L-glutamine. Unless indicated otherwise, under standard CFA conditions 2 U/ml Epo and 10 ng/ml IL-3 are added to the formulation to stimulate hematopoietic progenitor growth, specifically BFU-E, CFU-E and CFU-GM.
# (§3) Each condition was tested in duplicate in from 2-18 independent experiments. Cultures were maintained in a humidified incubator at 37° C., 5% CO2 and ambient oxygen tensions. The number of hematopoietic progenitors was scored between days 13-15 by counting the number and types of colonies present.
# (§4) Erythroid progenitor colony formation assays were conducted as described in Example 1 except that cultures were incubated at either ambient oxygen tensions (˜20% O2) or 5% O2. The reduced oxygen tension of 5% O2 approximates the physiological intravascular oxygen tension in mammals. The mean fold increase in cord blood BFU-E, CFU-E and CFU-GM progenitor number at 5% O2 produced by 1.0 mg/ml HAo (15.6 μM; n=11) or HEMOLINK™ (15.6 μM; n=6), 100 μM hemin (n=10), 250 μM FeCl3 (n=6) or no addition (n=17-18), is shown FIG. 2. Results are expressed relative to control cells treated only with respective vehicles and cultured at ambient oxygen tensions (˜20% O2; fold expansion=1.0; *p<0.05, **p<0.01).
# (§5) Erythroid progenitor colony formation assays were conducted as described in Example 1 except that cultures were initiated in the presence of Epo concentrations ranging from 0-2 U/ml. The mean fold increase in cord blood BFU-E, CFU-E and CFU-GM progenitor number produced by 1.0 mg/ml HAo (15.6 μM; n=9) or HEMOLINK™ (15.6 μM; n=6), 100 μM hemin (n=8), 250 μM FeCl3 (n=6), or no addition (n=9-10) in the presence of reduced Epo concentrations (0.2 U/ml) is shown in FIG. 3. Cultures were maintained at ambient oxygen tensions (˜20% O2) for 14 days. Results are expressed relative to control cells at 2 U/ml Epo treated only with the respective vehicles (solid line at fold expansion=1.0; *p<0.05, **p<0 01). Erythroid progenitor colonies were undetectable in the absence of Epo. […]
# [4] = test system: CFU-E; assay: Colony formation assay (CFA), cord blood LDMNC: CFU-E colonies; type: cell-based, human; settings: absence of HEMOLINK
# Method: as §1, §2, §3, §4, §5
# [5] = test system: CFU-GM; assay: Colony formation assay (CFA), cord blood LDMNC: CFU-GM colonies; type: cell-based, human
# Method: as §1, §2, §3
# (§6) The effect of the various additives on the inhibitory effect of succinylacetone (SA), a heme synthesis inhibitor, on erythroid progenitors was determined. Primary LDMNC were cultured in methyl cellulose as described in Example 1. Cord blood LDMN were plated in the presence of 1.0 mg/ml HAo (15.6 μM; n=12) or HEMOLINK™ (15.6 μM; n=5), 100 μM hemin (n=12), 250 μM FeCl3 (n=11) or no addition (n=12), in absence or presence of 0.5 mM SA. Cultures were maintained in a humidified chamber at 37° C., 5% CO2, and ambient oxygen tensions for 14 days.
# HEMOLINK™ was evaluated for its ability to protect erythroid progenitor cells from toxicity due to ganciclovir. Cord blood LDMNC were set up in CFAs in the presence and absence of 1 mg/ml HEMOLINK™ plus 0, 0.1, 1.0, 10, 50 or 100 μM ganciclovir. Conditions for the CFA were similar to those described in Examples 1-4. […] All data are expressed relative to the number of colonies of control plates without HEMOLINK™. The hematopoietic progenitors display different sensitivities to ganciclovir. CFU-E were unaffected by 1 μM ganciclovir. However, a similar inhibition of BFU-E occurs at a 50-fold lower dose of ganciclovir (1 μM). […] Due to the difficulty in scoring CFU-GM in the presence of hemoglobin precipitates, as previously noted, they could not be accurately measured under these conditions. Thus, HEMOLINK™ reduces toxicity of ganciclovir to erythroid progenitors with the most pronounced effect on BFU-E cells.
# [6] = test system: total erythroid progenitors (BFU-E+CFU-E); assay: Inhibition of succinylacetone (SA) toxicity to erythroid progenitors in CFA; type: cell-based, human; settings: 0.5 mM SA only, no other addition
# Method: as §6
# Results are expressed as the number of total erythroid progenitors (BFU-E+CFU-E) present on plates treated with the various additives in the presence of SA relative to the number present on untreated plates (no SA or other addition). Significant differences in the presence of the respective additives compared to no addition (SA only; relative progenitor number=0.31) are as indicated: *p<0.001, **p<0.0001. Significant differences in the presence of the respective additives compared to no treatment (no SA; solid line at relative erythroid progenitor number=1.0) are as indicated: +p<0.05, ++p<0.001.
compound,measurement,setting,value
Epo: recombinant human Epo; hormone that stimulates erythroid progenitors,Epo level,"[1]; 0 hours post administration, assuming 85 ml/kg",2.7 U/ml
same,Epo level,[1]; 21 hours post administration,0.33 U/ml
same,Epo level,[1]; 42 hours post administration,0.041 U/ml
same,Epo level,[1]; 63 hours post administration,0.0052 U/ml
same,Epo level,[1]; 84 hours post administration,0.00065 U/ml
same,half-life in plasma,[2]; after a subcutaneous injection,11.2 to 21.1 h
same,half-life in plasma,[2]; after an intravenous injection,5.6 to 8.8 h
same,fraction of subcutaneous dose absorbed into the bloodstream,[2]; subcutaneous,21.5-46.6%
Nc1nc(O)c2ncn(COC(CO)CO)c2n1 [ganciclovir],inhibition of BFU-E by ganciclovir,[3],dose-dependent inhibition
same,effect on CFU-E at 1 μM ganciclovir,[4]; 1 μM ganciclovir,unaffected
same,inhibition of CFU-E by ganciclovir,[4]; 0.1-100 μM ganciclovir,dose-dependent inhibition
same,dose at which CFU-GM are completely inhibited,"[5]; human, 14 days",greater than 10 μM
"CC(=O)CC(=O)CCC(=O)O [SA, Succinylacetone]",effect of SA on CFU-GM proliferation,[5]; 0.5 mM SA,did not inhibit CFU-GM proliferation
same,relative erythroid progenitor number (BFU-E+CFU-E) vs untreated plates,[6],0.31
